A short description of the data set: label from the status in PepcDB records.
With “MIIRIVQNIQRINKEGNAPLYISFYLGKEKVVIPCKLSVPTTKFDSKTGMLRGTNKEAKDINLIIERLKAKVNDILVKHRLKNLTLNKEAFMREYNNPSDFKSFHDFVASYMKTYSRRLEIGTFRHHKSCMRKFKEYCEGLQFHELTEDFLRDYLIYMKKTLCNADSTAQRNLSTIKIYVSAAIKKGYMENDPFKDFGVKRIKSNIDYLTEEELIKFISLYYDRRLPERLERTLGFFLFMCFTSLHISDARHVCLEQINNGILTYYRIKNRNCKPEAIKIPLSIPAFKIIEELQGKRKEGHLFTSLQCDQVVNRQIKEIASILEIKKKVSAKTGRHTFATIFLKKTKDVATLQKLLGHSNLKETMIYAHVLDESKQEGMQCFNSFAI”, the protein production result is “failed”.

Consider “MIKAILIFNNHGKPRLCKFYQHYSEDTQQQIIRETFHLVSKRDENVCNFLEGGLLIGGSDNKLIYRHYATLYFVFCVDSSESELGILDLIQVFVETLDKCFENVCELDLIFHVDKVHNILAEMVMGGMVLETNMNEIVTQIDA”, for which the protein production result was “not failed”.

“MIKGFRLWILIVSLGLSFSFLGYQWLTRYNFNTDHQVGDVIDSLNGVEIYYNGGVNTNEGRNLSLDGYNLGIKYQCVEFVKRYFYQRYQHQMPDSFGHARDFFDNLLTDGSWNEKRALRQFTNGSQSKPMADDLLVFAPWILNPYGHVAIIAAVTDKGIEIAQQNPGPFAPSREYFPLIQRDGLWYIDAPRAKGWLRWEATSPNVATENSGFIDPVMVIKELEHHHHHH”: the protein production entry was “not failed”.

On to “MIKIAIVGFGTVGQGVAELLIRKREEIEKAIGEFKVTAVADSKSSISGDFSLVEALRMKRETGMLRDDAKAIEVVRSADYDVLIEASVTRVDGGEGVNYIREALKRGKHVVTSNKGPLVAEFHGLMSLAERNGVRLMYEATVGGAMPVVKLAKRYLALCEIESVKGIFNGTCNYILSRMEEERLPYEHILKEAQELGYAEADPSYDVEGIDAALKLVIIANTIGVKASYEDVEVTGITQITPEAFQVAAEKGYTIRLIAEVSREKLKVSPRLVPFHHPLAIKGTMNAAMFKTDTAGSIFVAGRGAGKEETASAILSDLYEIYAGPR”, for which the protein production entry is listed as “failed”.

In the case of “MIKISVIIPIYNAENYIEKAFSSLKNQTLAQNEFEILCIDDKSTDNSLGKLKQLSKIHKNMRIINLHKNSGGPMIPRNKGIKEAKGKYIIFLDNDDYLGEEALERLFIQAEKNQSEVIFGKYVGINGRGVPQSQFKKGNRNEADILADNLVYTLAPHKMFQTAFLKTKKIYFDPNILIGEDQYFVMKAYVNAKVITVLADYDYYYVVSRGDENLSIKESKMDPREICKVVPAVVKEIEASPLHPTYKKTLIRAYIQRYFNDYITGNYNLDYKNMSERQKTFVQVMKDTIVCHLDEKMKNELPTKTRFMIDIIAENNPEKLIDVRMQMENFSKNQVVKVENGYIKGRFRKMRPQLAYDDVYDINHLNSSKVQLHSVTLQNNNYLLDISLEQSLLTRFQTALRLCLKERDGNLEIWISPLKMLSTERGIYAVDSTLFNHTCIWDLFIESEINGFKNRKRVGKDRDFEEIVSSNNTPLLIQNNSYQIKAYFTTPFSNLSFQIISE”, the protein production result was “failed”.

Regarding “MIKKIFALPVIEQISPVLSRRKLDELDLIVVDHPQVKASFALQGAHLLSWKPAGEEEVLWLSNNTPFKNGVAIRGGVPVCWPWFGPAAQQGLPAHGFARNLPWTLKSHHEDADGVALTFELTQSEETKKFWPHDFTLLAHFRVGKTCEIDLESHGEFETTSALHTYFNVGDIAKVSVSGLGDRFIDKVNDAKENVLTDGIQTFPDRTDRVYLNPQDCSVINDEALNRIIAVGHQHHLNVVGWNPGPALSISMGDMPDDGYKTFVCVETAYASETQKVTKEKPAHLAQSIRVAKR”, the protein production entry is reported as “not failed”.

“MIKKTIGGIIPIFTAVFIPASAGAADLMLAQEYKGQDIAGWAMSEKLDGVRAYWDGKHLMSRQGYAFAPPKGFTAQFPPYPLDGELYSGRGQFEQISATVRSVSSDWRGIRLHVFDVPKAQGNLYQRLAVATQWLKTHPNAPITIIPQIKVRDRQHAMDFLKQIEAQGGEGVMLRQPESRYSGGRSSQLLKLKSQYDDECTVTRHYEGKGRNAGRLGAVGCKNRHGEFRIGSGFKDKDRDNPPKIGTLITYRYRGFTRKGTPKFATFVRVRTDR”: the protein production result is “failed”.
